Tests used:
Assay in all cases: peptide or protein array
[1] = biological target: Mal12p (spotted on the yeast ProtoArray) (S. cerevisiae, UniProt P53341 1-584)
[2] = biological target: T1, Aip1p (spotted on the yeast ProtoArray) (S. cerevisiae, UniProt P46680 1-615)
T1 sequence (looked up): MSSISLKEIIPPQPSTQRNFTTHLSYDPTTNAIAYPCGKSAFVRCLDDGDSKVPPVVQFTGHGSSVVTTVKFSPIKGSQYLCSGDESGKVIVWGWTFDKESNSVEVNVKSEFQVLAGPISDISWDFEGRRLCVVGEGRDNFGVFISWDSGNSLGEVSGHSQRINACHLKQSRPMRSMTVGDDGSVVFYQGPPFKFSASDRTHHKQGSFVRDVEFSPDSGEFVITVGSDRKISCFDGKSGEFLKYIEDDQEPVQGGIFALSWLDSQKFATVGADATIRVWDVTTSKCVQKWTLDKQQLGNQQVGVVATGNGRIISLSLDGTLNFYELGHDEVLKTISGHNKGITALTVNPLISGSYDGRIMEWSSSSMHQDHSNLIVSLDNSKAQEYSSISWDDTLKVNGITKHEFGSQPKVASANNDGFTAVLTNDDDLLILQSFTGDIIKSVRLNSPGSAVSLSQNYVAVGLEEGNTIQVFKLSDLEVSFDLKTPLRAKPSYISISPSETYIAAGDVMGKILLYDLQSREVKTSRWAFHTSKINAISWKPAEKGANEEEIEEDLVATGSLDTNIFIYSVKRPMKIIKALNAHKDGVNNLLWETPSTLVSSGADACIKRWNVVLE

[3] = biological target: Frd1p (spotted on the yeast ProtoArray) (S. cerevisiae, UniProt P32614 1-470)
[4] = biological target: T2, Pol30p (spotted on the yeast ProtoArray) (S. cerevisiae, UniProt P15873 1-258)
T2 sequence (looked up): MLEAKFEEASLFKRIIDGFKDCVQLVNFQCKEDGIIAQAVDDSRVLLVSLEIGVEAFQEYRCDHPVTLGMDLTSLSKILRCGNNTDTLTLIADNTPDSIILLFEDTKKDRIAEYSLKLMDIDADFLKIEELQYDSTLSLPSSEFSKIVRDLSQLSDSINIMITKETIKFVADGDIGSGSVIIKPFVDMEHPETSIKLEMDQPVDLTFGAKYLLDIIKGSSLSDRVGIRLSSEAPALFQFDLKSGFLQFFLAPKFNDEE

[5] = biological target: T3, Drs1p (spotted on the yeast ProtoArray) (S. cerevisiae, UniProt P32892 1-752)
T3 sequence (looked up): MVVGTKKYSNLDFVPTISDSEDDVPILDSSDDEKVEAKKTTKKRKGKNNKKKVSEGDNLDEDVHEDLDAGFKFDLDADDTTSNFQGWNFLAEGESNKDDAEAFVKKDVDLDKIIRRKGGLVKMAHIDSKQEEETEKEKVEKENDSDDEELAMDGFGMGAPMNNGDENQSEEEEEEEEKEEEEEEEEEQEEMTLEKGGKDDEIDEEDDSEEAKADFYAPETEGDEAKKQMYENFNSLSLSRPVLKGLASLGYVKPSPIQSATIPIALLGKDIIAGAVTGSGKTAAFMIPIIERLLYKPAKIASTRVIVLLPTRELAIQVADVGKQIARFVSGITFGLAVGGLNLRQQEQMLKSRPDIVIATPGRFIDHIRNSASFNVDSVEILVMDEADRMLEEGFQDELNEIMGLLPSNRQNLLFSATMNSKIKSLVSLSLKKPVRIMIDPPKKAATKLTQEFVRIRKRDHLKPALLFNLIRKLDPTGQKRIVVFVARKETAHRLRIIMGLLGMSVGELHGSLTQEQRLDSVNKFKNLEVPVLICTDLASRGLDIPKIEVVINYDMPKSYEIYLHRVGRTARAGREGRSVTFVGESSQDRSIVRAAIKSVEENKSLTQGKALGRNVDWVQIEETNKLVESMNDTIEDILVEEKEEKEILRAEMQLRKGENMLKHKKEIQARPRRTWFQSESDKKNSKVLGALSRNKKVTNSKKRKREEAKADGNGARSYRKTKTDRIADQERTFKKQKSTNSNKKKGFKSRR

[6] = biological target: T4, Emi2p (spotted on the yeast ProtoArray) (S. cerevisiae, UniProt Q04409 1-500)
T4 sequence (looked up): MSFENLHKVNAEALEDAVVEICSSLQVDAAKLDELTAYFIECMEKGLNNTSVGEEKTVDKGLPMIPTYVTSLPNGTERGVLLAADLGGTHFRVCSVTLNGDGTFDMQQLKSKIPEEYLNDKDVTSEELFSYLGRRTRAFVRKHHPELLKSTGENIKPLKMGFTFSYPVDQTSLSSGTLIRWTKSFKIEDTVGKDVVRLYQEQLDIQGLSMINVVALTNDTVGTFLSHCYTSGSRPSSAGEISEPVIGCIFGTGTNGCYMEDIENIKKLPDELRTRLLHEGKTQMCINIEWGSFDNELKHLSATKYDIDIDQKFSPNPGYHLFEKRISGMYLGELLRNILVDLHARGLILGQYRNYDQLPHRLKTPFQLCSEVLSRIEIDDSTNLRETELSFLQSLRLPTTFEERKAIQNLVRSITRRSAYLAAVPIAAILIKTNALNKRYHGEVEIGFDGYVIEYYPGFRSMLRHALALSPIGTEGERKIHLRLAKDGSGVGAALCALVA

Measured: binding result

Frd1p (spotted on the yeast ProtoArray), sequence (P32614 whole entry): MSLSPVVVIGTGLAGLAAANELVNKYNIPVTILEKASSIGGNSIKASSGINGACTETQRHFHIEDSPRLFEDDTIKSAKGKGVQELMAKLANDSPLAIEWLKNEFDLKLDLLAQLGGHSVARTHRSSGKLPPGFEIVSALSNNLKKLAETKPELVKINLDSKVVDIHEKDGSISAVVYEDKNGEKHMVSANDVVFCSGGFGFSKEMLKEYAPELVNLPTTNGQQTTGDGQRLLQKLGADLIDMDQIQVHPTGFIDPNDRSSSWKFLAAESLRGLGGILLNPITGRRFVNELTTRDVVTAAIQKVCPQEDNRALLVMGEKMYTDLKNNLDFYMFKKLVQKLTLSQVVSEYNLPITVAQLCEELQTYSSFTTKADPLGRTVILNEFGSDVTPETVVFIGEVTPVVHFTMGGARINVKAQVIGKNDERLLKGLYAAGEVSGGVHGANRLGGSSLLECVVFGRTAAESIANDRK
Mal12p (spotted on the yeast ProtoArray), sequence (P53341 whole entry): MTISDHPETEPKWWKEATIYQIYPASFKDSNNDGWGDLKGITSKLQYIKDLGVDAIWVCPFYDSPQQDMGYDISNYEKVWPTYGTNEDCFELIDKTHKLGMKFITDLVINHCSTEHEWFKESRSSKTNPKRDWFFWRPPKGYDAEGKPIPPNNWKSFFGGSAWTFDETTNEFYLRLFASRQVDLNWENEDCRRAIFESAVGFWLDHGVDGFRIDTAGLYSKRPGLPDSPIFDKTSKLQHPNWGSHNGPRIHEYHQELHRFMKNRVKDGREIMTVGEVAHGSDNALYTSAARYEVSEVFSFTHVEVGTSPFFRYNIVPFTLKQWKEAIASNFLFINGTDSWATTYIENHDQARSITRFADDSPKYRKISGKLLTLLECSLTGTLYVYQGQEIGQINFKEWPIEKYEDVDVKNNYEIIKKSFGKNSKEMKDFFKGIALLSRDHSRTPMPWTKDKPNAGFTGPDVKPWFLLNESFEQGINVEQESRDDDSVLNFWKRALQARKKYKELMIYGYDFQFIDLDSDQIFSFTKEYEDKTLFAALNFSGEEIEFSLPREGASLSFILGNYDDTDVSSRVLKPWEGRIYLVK

B1: purified and biotinylated cytoplasmic domain of the Msb2p protein (HIS-Msb2p^CYT) (domain or fragment, S. cerevisiae, UniProt P32334 1207-1306, looked up)
chain: AFKYIIRRRIQSQEIIKNPEISSISSSEFGGEKNYNNEKRMSVQESITQSMRIQNWMDDSYYGHGLTNNDSTPTRHNTSSSIPKISRPIASQNSLGWNEV
modifications: biotinylated in vitro (sites not given)
binds: all assays above

From doi:10.1101/786475 (bioRxiv, 2019)
